Assay results as given in paper PMC12746484, “Growth-coupled selection of 5-aminolevulinic acid synthetase mutants for 5-aminolevulinic acid biosynthesis in Corynebacterium glutamicum” (Frontiers in Microbiology, 2025).

Key:
[1] = test system: T1, CC(C)(COP(=O)(O)OP(=O)(O)OC[C@H]1O[C@@H](n2cnc3c(N)ncnc32)[C@H](O)[C@@H]1OP(=O)(O)O)[C@@H](O)C(=O)NCCC(=O)NCCSC(=O)CCC(=O)O; assay: steady-state kinetics, 5-ALA formation, nonlinear Michaelis-Menten fit; format: biochemical, Rhodobacter capsulatus; settings: 37 °C, Tris pH 7.5, pyridoxal phosphate, co-substrate glycine, succinyl-CoA 5-150 μM
T1 construct: codon-optimized hemA cloned in pET28a, expressed in E. coli BL21(DE3), Ni-NTA purified
Description: (§1) steady-state kinetics, 5-ALA formation, nonlinear Michaelis-Menten fit on ALAS from Rhodobacter capsulatus SB1003 (hemA^Rc; pET28a-SB)

NCC(=O)O = test system: T2, NCC(=O)O; assay: as above; format: biochemical, Rhodobacter capsulatus; settings: 37 °C, Tris pH 7.5, pyridoxal phosphate, co-substrate succinyl-CoA, glycine 1-40 mM
T2 construct: codon-optimized hemA cloned in pET28a, expressed in E. coli BL21(DE3), Ni-NTA purified
Description: as §1

ALAS from Rhodobacter capsulatus SB1003 (hemA^Rc; pET28a-SB) (Rhodobacter capsulatus SB 1003; E27V/F363Y/G105C), sequence (chain, as listed by the source E27V F363Y G105C): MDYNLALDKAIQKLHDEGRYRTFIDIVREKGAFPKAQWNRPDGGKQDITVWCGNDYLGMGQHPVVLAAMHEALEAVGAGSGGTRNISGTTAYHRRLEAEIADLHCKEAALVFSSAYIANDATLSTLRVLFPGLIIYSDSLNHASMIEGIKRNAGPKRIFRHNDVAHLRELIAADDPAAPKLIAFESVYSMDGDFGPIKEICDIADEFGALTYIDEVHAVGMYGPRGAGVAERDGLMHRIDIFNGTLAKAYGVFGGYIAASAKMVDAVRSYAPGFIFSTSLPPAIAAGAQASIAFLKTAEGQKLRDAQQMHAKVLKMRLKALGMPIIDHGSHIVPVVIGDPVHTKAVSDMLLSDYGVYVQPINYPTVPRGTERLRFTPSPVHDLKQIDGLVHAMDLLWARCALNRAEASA
ALAS from Rhodobacter capsulatus SB1003 (hemA^Rc; pET28a-SB) (Rhodobacter capsulatus SB 1003), sequence (chain, as listed by the source): as the sequence (chain, as listed by the source E27V F363Y G105C) above, with V27E, C105G, Y363F counted along it

Substance	Km [1] [µM]	kcat [1] [s⁻¹]	kcat/Km [1] [M⁻¹ s⁻¹]	Km (NCC(=O)O) [mM]	kcat (NCC(=O)O) [s⁻¹]	kcat/Km (NCC(=O)O) [M⁻¹ s⁻¹]
ALAS from Rhodobacter capsulatus SB1003 (hemA^Rc; pET28a-SB) (Rhodobacter capsulatus SB 1003; E27V/F363Y/G105C)	16.88 ± 2.21	2.94 ± 0.15	170000 ± 20000	2.13 ± 0.22	2.94 ± 0.15	1270 ± 180
ALAS from Rhodobacter capsulatus SB1003 (hemA^Rc; pET28a-SB) (Rhodobacter capsulatus SB 1003)	17.5 ± 2.65	2.52 ± 0.22	140000 ± 30000	2.66 ± 0.26	2.52 ± 0.22	950 ± 230
